Source: patent publication EP0717753B1

Legend:
p185 HER2/neu [1] = target: p185 HER2/neu (UniProt P04626); experiment: radioimmunoassay on fixed SKBR3 cells, 125I anti-mouse Ig secondary antibody
[2] = target: Epidermal Growth Factor Receptor (UniProt P00533); experiment: radioimmunoassay on fixed A431 cells (non-target cell line for MGR6), 125I anti-mouse Ig secondary antibody
p185 HER2/neu [3] = target: p185 HER2/neu (UniProt P04626); experiment: radioimmunoassay on fixed SKBR3 cells (non-target cell line for Mint5), 125I anti-mouse Ig secondary antibody
[4] = target: Epidermal Growth Factor Receptor (UniProt P00533); experiment: cell-based or functional assay
[5] = target: Epidermal Growth Factor Receptor (UniProt P00533); experiment: radioimmunoassay on fixed A431 cells, 125I anti-mouse Ig secondary antibody

immunoconjugate MGR6 - Ocymoidine (antibody)
% binding (p185 HER2/neu [1]): 87.5%
% binding [2]: 15.3%

immunoconjugate MGR6 - Piramidatine (antibody)
% binding (p185 HER2/neu [1]): 105%

immunoconjugate Mint5 - Piramidatine (antibody)
% binding (p185 HER2/neu [3]): 18.8%
INHIBITION OF CELL PROLIFERATION: IC50 CELL LINE A431, protocol A [4]: 1.3e-12
INHIBITION OF CELL PROLIFERATION: IC50 CELL LINE A431, protocol B [4]: 4.2e-11
INHIBITION OF PROTEIN … IN CELL SYSTEM: IC50 CELL LINE A431, protocol A [4]: 1e-11
INHIBITION OF PROTEIN … IN CELL SYSTEM: IC50 CELL LINE A431, protocol B [4]: 1e-11
% binding [5]: 110%

immunoconjugate Mint5 - Ocymoidine (antibody)
% binding (p185 HER2/neu [3]): 9.38%
INHIBITION OF CELL PROLIFERATION: IC50 CELL LINE A431, protocol A [4]: 1.9e-12
INHIBITION OF CELL PROLIFERATION: IC50 CELL LINE A431, protocol B [4]: 3.2e-11
INHIBITION OF PROTEIN … IN CELL SYSTEM: IC50 CELL LINE A431, protocol A [4]: 1e-11
INHIBITION OF PROTEIN … IN CELL SYSTEM: IC50 CELL LINE A431, protocol B [4]: 1e-11
% binding [5]: 78.5%
